Results taken from article PMC10397247.
Each block holds one binder with its values, some of them ahead of it.

Assays:
[1] = molecular target: T1, 4H3073-AA; assay: two-hybrid library CCmax; conditions: mean of both orientations;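 note: natural log of median RNA to DNA barcode read ratio; higher means stronger binding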
T1 chain: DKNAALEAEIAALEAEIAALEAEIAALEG

[2] = molecular target: T2, 4H_APH; assay: two-hybrid library CCmax;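 note: natural log of median RNA to DNA barcode read ratio; higher means stronger binding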
T2 chain: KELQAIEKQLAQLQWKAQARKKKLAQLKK

[3] = molecular target: T3, 4H3015-AA; assay: two-hybrid library CCmax; conditions: mean of both orientations;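 note: natural log of median RNA to DNA barcode read ratio; higher means stronger binding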
T3 chain: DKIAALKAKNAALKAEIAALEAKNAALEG

[4] = molecular target: T4, 4H2466-AA; assay: two-hybrid library CCmax; conditions: mean of both orientations;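 note: natural log of median RNA to DNA barcode read ratio; higher means stronger binding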
T4 chain: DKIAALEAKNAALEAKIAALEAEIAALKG

[5] = molecular target: T5, 4H2165-AA; assay: two-hybrid library CCmax; conditions: mean of both orientations;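 note: natural log of median RNA to DNA barcode read ratio; higher means stronger binding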
T5 chain: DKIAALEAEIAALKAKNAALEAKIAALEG

[6] = molecular target: T6, 4H452-AA; assay: two-hybrid library CCmax; conditions: mean of both orientations;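 note: natural log of median RNA to DNA barcode read ratio; higher means stronger binding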
T6 chain: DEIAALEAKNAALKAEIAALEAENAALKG

[7] = molecular target: T7, 4H2253-AA; assay: two-hybrid library CCmax; conditions: mean of both orientations
T7 chain: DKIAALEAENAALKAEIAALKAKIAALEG

[8] = molecular target: T8, 4H2931-AA; assay: two-hybrid library CCmax; conditions: mean of both orientations
T8 chain: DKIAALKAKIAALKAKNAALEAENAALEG

[9] = molecular target: T9, 4H347-AA; assay: two-hybrid library CCmax; conditions: mean of both orientations
T9 chain: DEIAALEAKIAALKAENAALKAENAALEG

[10] = molecular target: T10, 4H2592-AA; assay: two-hybrid library CCmax; conditions: mean of both orientations
T10 chain: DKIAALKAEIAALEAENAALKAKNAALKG

[11] = molecular target: T11, 4H2774-AA; assay: two-hybrid library CCmax; conditions: mean of both orientations
T11 chain: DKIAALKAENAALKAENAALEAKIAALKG

[12] = molecular target: 4H_GCN4; assay: two-hybrid library CCmax
4H_GCN4, sequence (chain, as listed by the source): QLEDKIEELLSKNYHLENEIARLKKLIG

[13] = molecular target: T12, 4H2330-AA; assay: two-hybrid library CCmax; conditions: mean of both orientations
T12 chain: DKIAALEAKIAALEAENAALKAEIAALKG

[14] = molecular target: GCN2_T; assay: two-hybrid library CCmax
[15] = molecular target: T13, 4H406-AA; assay: two-hybrid library CCmax; conditions: mean of both orientations
T13 chain: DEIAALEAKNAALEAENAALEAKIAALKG

[16] = molecular target: T14, 4H1930-AA; assay: two-hybrid library CCmax
T14 chain: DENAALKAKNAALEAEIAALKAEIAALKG

[17] = molecular target: T15, 4H3438-AA; assay: two-hybrid library CCmax; conditions: mean of both orientations
T15 chain: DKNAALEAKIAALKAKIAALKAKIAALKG

[18] = molecular target: T16, 4H_BCR; assay: two-hybrid library CCmax; conditions: mean of both orientations
T16 chain: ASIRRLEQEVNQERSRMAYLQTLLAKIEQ

[19] = molecular target: T17, 4H2512-AA; assay: two-hybrid library CCmax
T17 chain: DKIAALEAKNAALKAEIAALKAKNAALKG

[20] = molecular target: T18, 4H2124-AA; assay: two-hybrid library CCmax; conditions: mean of both orientations
T18 chain: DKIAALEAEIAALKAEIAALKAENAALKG

[21] = molecular target: T19, 4H249-AA; assay: two-hybrid library CCmax; conditions: mean of both orientations
T19 chain: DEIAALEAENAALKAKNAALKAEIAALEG

[22] = molecular target: T20, 4H2343-AA; assay: two-hybrid library CCmax; conditions: mean of both orientations
T20 chain: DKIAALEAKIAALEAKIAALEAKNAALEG

[23] = molecular target: T21, 4H56-AA; assay: two-hybrid library CCmax; conditions: mean of both orientations
T21 chain: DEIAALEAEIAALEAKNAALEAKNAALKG

[24] = molecular target: T22, 4H2732-AA; assay: two-hybrid library CCmax; conditions: mean of both orientations
T22 chain: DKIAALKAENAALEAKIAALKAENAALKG

[25] = molecular target: T23, 4H3001-AA; assay: two-hybrid library CCmax; conditions: mean of both orientations
T23 chain: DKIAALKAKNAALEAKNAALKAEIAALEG

[26] = molecular target: T24, 4H3057-bH; assay: two-hybrid library CCNG1
T24 chain: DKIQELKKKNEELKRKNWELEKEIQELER

[27] = molecular target: T25, 4H2503-bH; assay: two-hybrid library CCNG1
T25 chain: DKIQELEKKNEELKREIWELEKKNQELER

[28] = molecular target: T26, 4H40-bH; assay: two-hybrid library CCNG1
T26 chain: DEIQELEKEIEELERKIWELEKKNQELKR

[29] = molecular target: T27, 4H492-bH; assay: two-hybrid library CCNG1
T27 chain: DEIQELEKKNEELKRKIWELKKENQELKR

[30] = molecular target: T28, 4H741-bH; assay: two-hybrid library CCNG1
T28 chain: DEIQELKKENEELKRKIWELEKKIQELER

[31] = molecular target: T29, 4H319-bH; assay: two-hybrid library CCNG1
T29 chain: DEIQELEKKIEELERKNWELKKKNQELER

[32] = molecular target: T30, 4H2588-bH; assay: two-hybrid library CCNG1
T30 chain: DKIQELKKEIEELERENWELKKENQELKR

[33] = molecular target: T31, 4H477-bH; assay: two-hybrid library CCNG1
T31 chain: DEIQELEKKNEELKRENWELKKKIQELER

[34] = molecular target: T32, 4H2915-bH; assay: two-hybrid library CCNG1
T32 chain: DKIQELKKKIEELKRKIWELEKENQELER

[35] = molecular target: T33, 4H2473-bH; assay: two-hybrid library CCNG1
T33 chain: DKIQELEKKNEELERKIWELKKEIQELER

[36] = molecular target: T34, 4H2717-bH; assay: two-hybrid library CCNG1
T34 chain: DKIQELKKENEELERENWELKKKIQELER

[37] = molecular target: T35, 4H3277-bH; assay: two-hybrid library CCNG1
T35 chain: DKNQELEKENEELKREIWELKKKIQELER

[38] = molecular target: T36, 4H348-bH; assay: two-hybrid library CCNG1
T36 chain: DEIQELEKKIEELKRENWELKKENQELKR

[39] = molecular target: T37, 4H2692-bH; assay: two-hybrid library CCNG1
T37 chain: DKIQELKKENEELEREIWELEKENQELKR

[40] = molecular target: T38, 4H2839-bH; assay: two-hybrid library CCNG1
T38 chain: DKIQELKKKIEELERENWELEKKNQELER

[41] = molecular target: T39, 4H619-bH; assay: two-hybrid library CCNG1
T39 chain: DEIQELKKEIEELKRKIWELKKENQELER

- interaction score [1]: -0.77
- interaction score [2]: -1.06
- interaction score [3]: -1.72
- interaction score [4]: -1.3
- interaction score [5]: -1.35
- interaction score [6]: -1.51
- interaction score [7]: -1.35
- interaction score [8]: -1.91
- interaction score [9]: -1.32
- interaction score [10]: -1.46
- interaction score [11]: -1.57
- interaction score [12]: -1.23
- interaction score [13]: -1.7
- interaction score [14]: -1.22
- interaction score [15]: -1.92
- interaction score [16]: 1.78
- interaction score [17]: -1.3
- interaction score [18]: -1.93
- interaction score [19]: -3.66
- interaction score [20]: -1.14
- interaction score [21]: -1.82
- interaction score [22]: -1.34
- interaction score [23]: -2.31
- interaction score [24]: -1.87
- interaction score [25]: -1.62
B1: 4H1930-AA (peptide)
chain: DENAALKAKNAALEAEIAALKAEIAALKG

- interaction score [26]: 0.309
- interaction score [27]: 0.0804
- interaction score [28]: -0.286
- interaction score [29]: 0.0302
- interaction score [30]: -0.491
- interaction score [31]: -1.01
- interaction score [32]: -0.165
- interaction score [33]: -1.42
- interaction score [34]: 0.134
- interaction score [35]: 1.05
- interaction score [36]: -0.241
- interaction score [37]: -0.651
- interaction score [38]: -0.545
- interaction score [39]: 0.549
- interaction score [40]: -0.0772
- interaction score [41]: -2.35
B2: 4H2473-bH (peptide)
chain: DKIQELEKKNEELERKIWELKKEIQELER
